Measured values from article PMC7876045.

Target: RNAP sigma70 holoenzyme (Esigma70) (Escherichia coli) (UniProt P0A7Z4+P0A8V2+P0A8T7+P0A800+P00579)
Assay: KMnO4 footprinting
Conditions: 40 mM Tris-HCl pH 8.0, 1 mM DTT, 0.1 mg/ml BSA, 10 mM MgCl2, 50 mM KCl, 37 C (transcription buffer); 150 nM Esigma70, sample mixed 1:1 with 20 mM KMnO4 for …

Sequence | binding
ACCTCGGTATGCCTTGTGACTGGCTTGACAAGCTTTTCCTCAGCTCCGTAAACTCCTTTCAGTGGGAAATTGTGGGGCAAAGTGGGAATAAGGGGTGAGGCTGGCATGTTCCGGGGAGCAA (double strand) [mraZ promoter (G1p) permanganate template] | binds
ATCGCCAGCGCGCGATGATGTTCCGAAGACTATAAGGCATGTTATAGTCTGGATTATATTGAGGCAAGTCACCCTCCCATTTATTCAGAGTAAAAGTCTATTCTGTGATAAATGGC (double strand) [minC promoter (G1d) permanganate template] | binds
